B1: TPR 5TU (parent)
chain: GGAUCUUCUCGAUCUAACAAAAAAGACAAAUCUGCCACAAAGCUUGAGAGCAUCUUCGGAUGCAGAGGCGGCAGCCUUCGGUGGCGCGAUAGCGCCAACGUUCUCAACUAUGACACGCAAAACGCGUGCUCCGUUGAAUGGAGUUUAUCAUG

Fewer inactive variants are shown than the library holds.

The variants in the series derive from B1. Kind of series: polymerase ribozyme fitness, log enrichment relative to wild type (log ratio); higher = more active; in vitro selection for triplet polymerase activity. In outline: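 The heterodimeric triplet polymerase ribozyme's subunits were each mutagenized into PCR-built libraries and transcribed. Every library was selected once, in triplicate, by annealing with a biotinylated primer, the partner subunit and triplets, incubating frozen at −7 °C, gel-excising extended constructs, capturing on streptavidin beads and running RT-PCR. Input and output libraries were Illumina-sequenced, with genotypes kept only at ≥10 input reads and ≥1 read per output. Fitness, from inverse-variance-weighted replicate averages, is the base-2 logarithm of genotype enrichment over wild-type enrichment.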
On to GGAUCUUCUCGAUCUAACAAAAAAGACAAAUCUGCCACAAAGCUUGAGAGCAUCUUCGGAUGCAGAGGCGGCAGCCUUCGGUGGCUCGAUAGCGCCAACGUGCUCAACUAUGACACGCAAAACGCGUGCUCCGUUGAAUGGAGUUUAUCUUG [G86U U102G A150U], for which the “polymerase ribozyme fitness (log ratio)” value was -3.59. GGAUCUUCUCGAUCUAACAAAAAAGACAAAUCUGCCACAAAGCUUGAGAGCAUCUUCGGAUGCAGAGGCGGCAGCCUUCGGUGGCGAGAUAGCGCCAACGUUCUCACCUAUGACACGCAAAACGCGUGCUCCGUUGAAUGGAGUUUAUCAUG [C87A A107C]: the “polymerase ribozyme fitness (log ratio)” value was at most -4.2. For the variant GGAUCUUCUCGAUCUAACAAAAAAGACAAAUCUGCCACAAAGCUUGAGAGCAUCUUCGGAUGCAGAGGCGGCAGCCUUCGGUGGCGAGUUAGCGCCAACGUUCUCAACUAUGACACGCAAAACGCGUGGUCCGUUGAAUGGAGUUUAUCAUG [C87A A89U C129G], the “polymerase ribozyme fitness (log ratio)” value was at most -4.2. The value for GGAUCUUCUCGAUCUAACAAAAAAGACAAAUCUGCCACAAAGCUUGAGAGCAUCUUCGGAUGCAGAGGCGGCAGCCUUCGGUGGCGAGAUAGCGCCAACGUUCUCAACUAUCACAGGCAAAACGCGUGCUCCGUUGAAUGGAGUUUAUCAUG [C87A G112C C116G] was at most -4.2; that for GGAUCUUCUCGAUCUAACAAAAAAGACAAAUCUGCCACAAAGCUUGAGAGCAUCUUCGGAUGCAGAGGCGGCAGCCUUCGGUGGCGAGAUAGCGCCAACGUUCUCAACUAUGACCCGCAAAACGCGUGCUCCGUUGAAUGGAGUUUAUCAUG [C87A A115C] was -4.1; that for GGAUCUUCUCGAUCUAACAAAAAAGACAAAUCUGCCACAAAGCUUGAGAGCAUCUUCGGAUGCAGAGGCGGCAGCCUUCGGUGGCGAGAUGGCGCCAACGUUCUCAACUAUGACACGCAAAACGCGUGCUCCGUUGAAUGGAGUUUAUCAUU [C87A A91G G152U] was -4.13.

In the case of GGAUCUUCUCGAUCUAACAAAAAAGACAAAUCUGCCACAAAGCUUGAGAGCAUCUUCGGAUGCAGAGGCGGCAGCCUUCGGUGGCUCGAUAGCGCCAACGCUCUCAACUAUGACACGUAAAACGCGUGCUCCGUUGAAUGGAGUUUAUCAUG [G86U U101C C118U], the “polymerase ribozyme fitness (log ratio)” value is -1.56. Under GGAUCUUCUCGAUCUAACAAAAAAGACAAAUCUGCCACAAAGCUUGAGAGCAUCUUCGGAUGCAGAGGCGGCAGCCUUCGGUGGCGAGAUAGCGCCAACGUUCUCACCUAUGACACGCAAAACGCGUGCUCCGUUGAACGGAGUUUAUCAAG [C87A A107C U139C U151A] stands at most -4.2; under GGAUCUUCUCGAUCUAACAAAAAAGACAAAUCUGCCACAAAGCUUGAGAGCAUCUUCGGAUGCAGAGGCGGCAGCCUUCGGUGGCUCGAUAGCGCCAACGUUCGCAACUAUGACAAGCAAAACGCGUGCUCCGUUGAAUGGAGUUUAUCAUG [G86U U104G C116A], -2.52; under GGAUCUUCUCGAUCUAACAAAAAAGACAAAUCUGCCACAAAGCUUGAGAGCAUCUUCGGAUGCAGAGGCGGCAGCCUUCGGUGGCUCUAUAGCUCCAACGUUCUCAACUAUGACACGCAAAACGCGUGCUCCGUUGAAUGGAGUUUAUCUUG [G86U G88U G94U A150U], at most -4.2.

For GGAUCUUCUCGAUCUAACAAAAAAGACAAAUCUGCCACAAAGCUUGAGAGCAUCUUCGGAUGCAGAGGCGGCAGCCUUCGGUGGCGAGAUAUCGCCAACGUUCUCAACUAUGACACGCAAAACGCGUGCUCCGUUGAAUGGAGUUUAUCAUG [C87A G92U], the “polymerase ribozyme fitness (log ratio)” value was 0.159.

As for GGAUCUUCUCGAUCUAACAAAAAAGACAAAUCUGCCACAAAGCUUGAGAGCAUCUUCGGAUGCAGAGGCGGCAGCCUUCGGUGGCUCGAUAGCGCCAACGUUCUCAACUAUGACACGCAAAACGCGUGCUCCGUUGAAUUGAGUUUAUCAUG [G86U G140U], the “polymerase ribozyme fitness (log ratio)” value is -3.83. For GGAUCUUCUCGAUCUAACAAAAAAGACAAAUCUGCCACAAAGCUUGAGAGCAUCUUCGGAUGCAGAGGCGGCAGCCUUCGGUGGCUCGAUAGCGCCAACGUUCUCAACUAUGACACGCAAAACGCGUGCUCCGUUGAAUGGAAUUUAUCAUG [G86U G143A], the “polymerase ribozyme fitness (log ratio)” value was -2.53. Under GGAUCUUCUCGAUCUAACAAAAAAGACAAAUCUGCCACAAAGCUUGAGAGCAUCUUCGGAUGCAGAGGCGGCAGCCUUCGGUGGCGAGAUAGAGGCAACGUUCUCAACUAUGACACGCAAUACGCGGGCUCCGUUGAAUAGAGUUUAUCAUG [C87A C93A C95G A121U U127G G140A] stands at most -4.2. Consider GGAUCUUCUCGAUCUAACAAAAAAGACAAAUCUGCCACAAAGCUUGAGAGCAUCUUCGGAUGCAGAGGCGGCAGCCUUCGGUGGCUCGAUAUCGCCAACGUUCUCAACUAUGACACGCAAAACGCGUGCUCCGUUGAAUGGAGUUUAUCAUG [G86U G92U], for which the “polymerase ribozyme fitness (log ratio)” value was -1.95. The value for GGAUCUUCUCGAUCUAACAAAAAAGACAAAUCUGCCACAAAGCUUGAGAGCAUCUUCGGAUGCAGAGGCGGCAGCCUUCGGUGGCUCGAUACCGCCAACGUUCUCAACUAUGACACGCAAAACGCGUGCUCCGUUGAAUGGAGUUUAUCAUG [G86U G92C] was -2.75. With GGAUCUUCUCGAUCUAACAAAAAAGACAAAUCUGCCACAAAGCUUGAGAGCAUCUUCGGAUGCAGAGGCGGCAGCCUUCGGUGGCGAGAUAGCGCCAACGUUCUCAACUAUGACACGCAAAACGUGUGCUCCGUUGUAUGGAGUUUAUCAUG [C87A C125U A137U], the “polymerase ribozyme fitness (log ratio)” value was at most -4.2.

For GGAUCUUCUCGAUCUAACAAAAAAGACAAAUCUGCCACAAAGCUUGAGAGCAUCUUCGGAUGCAGAGGCGGCAGCCUUCGGUGGCGAGAUAGUGUCAACAUUCUCAACUAUGACAUGCAAGACGCGUGAGCCGUUGAAUGGAGUUUAUCAUG [C87A C93U C95U G100A C116U A121G C129A U130G], the “polymerase ribozyme fitness (log ratio)” value was at most -4.2. The value for GGAUCUUCUCGAUCUAACAAAAAAGACAAAUCUGCCACAAAGCUUGAGAGCAUCUUCGGAUGCAGAGGCGGCAGCCUUCGGUGGCGAGAUAGCGCCAACGUUCUUAUCUAUGACACGCAAAACGCGUGCUCCGUUGAAUGGAGUUUAUCAUG [C87A C105U A107U] was at most -4.2.

The values above are taken from the RNAGym collection of RNA variant scans (doi:10.1073/pnas.2313332121).
